Test [1] has as its target C-terminally truncated HRSV nucleoprotein N1-370 (strain Long), as N-RNA assemblies (Human respiratory syncytial virus (strain Long)) (UniProt P03418). The test is described as follows: cryo-EM structure; purified N-RNA assemblies in TEN buffer (50 mM Tris-HCl, 10 mM EDTA, 150 mM NaCl, pH 7.4), plunge-frozen on holey carbon grids; Glacios microscope, K2 detector; assemblies classified and reconstructed separately.

Test [2] deals with Human respiratory syncytial virus nucleoprotein N, full-length wild type (strain Long), as N-RNA assemblies (Human respiratory syncytial virus (strain Long)) (UniProt P03418). The test is described as above.

“And” between values parts separate entries of the source, which are not always exact repeats. Equal values may be shown once.

Consider “C-terminally truncated HRSV nucleoprotein N1-370 (strain Long), as N-RNA assemblies (from UniProt P03418 1-370) (domain or fragment)”, for which, in test [1], the stoichiometry N is 10.
Consider “Human respiratory syncytial virus nucleoprotein N, full-length wild type (strain Long), as N-RNA assemblies (from UniProt P03418 1-391) (natural protein)”, for which, in test [2], the stoichiometry N was 10 and 11.

These data come from paper PMC10504348.
